Earlier results as cited in patent US20230301999A1, “METHODS OF TREATING GOUT” (Horizon Therapeutics USA, Inc., priority 2020, published 2023).
Read-outs that look alike come from different tables or passages of the source.

Assays:
patients with gout = conditions: patients treated with allopurinol
[1] = tested on: hyperuricemic patients with symptomatic gout
[2] = tested on: patients receiving pegloticase
subjects with gout = conditions: Phase 2, 30-min administration in the majority
[3] = tested on: patients with refractory chronic gout; conditions: Phase 2 program
[4] = tested on: subjects with refractory gout; conditions: doses of 4 to 12 mg; from 11.1±0.6 mg/dL
[5] = rat; during 7 days after injection
[6] = single IV infusions of 0.5 mg to 12 mg; 23 patients with symptomatic gout
[7] = 2 hemodialysis sessions; pre- and post-dialyzer samples
vacuolated cells = conditions: no associated clinical manifestations
[8] = tested on: patients with refractory chronic gout; conditions: bi-weekly or every 4 weeks for up to 30 months

For Oc1ncnc2[nH]ncc12 [allopurinol], the “patients developing allergic reactions” value (patients with gout) is listed as “Approximately 2%”.

For pegloticase, the “subjects with infusion reactions (IRs)” value ([1]; 8 mg every 2 weeks, Phase 3, 120-min infusion, IR prophylaxis, no pre-infusion uric acid monitoring) is given as 26%, the “subjects with infusion-related reactions” value ([1]; 8 mg every 4 weeks, Phase 3) is given as 40% and the “patients maintaining therapeutic response” value ([1]; 6 months, pegloticase alone, previously reported) is given as 42%. The “patients with IRs in whom loss of response (SUA≥6 mg/dL) preceded the first IR” value ([1]; 20/21 patients) was 95%, the subjects with anaphylaxis ([1]; Phase 3, 120-min infusion, IR prophylaxis) was 5% and the IR rate ([1]; clinical practice/studies with a uric acid monitoring protocol) was “about 8%”. For the same compound, the “patients with antibody titer exceeding 1:2430 maintaining response” value ([2]; 7 of 65, another study) was 10.8%, the “patients with titers exceeding 1:2430 developing IRs” value ([2]; 31 of 52) was 60% and the “patients never having antibody titer above 1:2430 maintaining response” value ([2]; 58/65, another study) was 89.2%. For the same compound, the “participants with high titers developing IR” value ([2]; second study) was 60%, the anaphylaxis (subjects with gout) was “no subjects experienced anaphylaxis” and the “subjects experiencing an IR” value (subjects with gout; no MTX, majority without IR prophylaxis) was 44%. The dose-response plateau dose [3] was 12 mg, the minimally effective dose [3] was 4 mg and the “safe and optimally effective dose” value [3] was 8 mg. For the same compound, the “pUAc after fall, mean±SD” value [4] was 1.0±0.5 mg/dL, the “dose excreted in the urine” value [5] was “Approximately 70%” and the “maximum serum concentrations vs dose” value [6] was “increased in proportion to the dose administered”. For the same compound, the removal by dialysis [7] was “not removed by the dialysis process”, the “finding in chronic toxicology studies” value (vacuolated cells) was “dose-dependent increase in vacuolated cells” and the “stability diluted in infusion bags” value (2° C. to 8° C.) was 4 h. For the same compound, the “stability diluted in infusion bags” value (room temperature (20° C. to 25° C.)) was 4 h and the long-term safety [8] was “No new safety signals were observed”.
